# T1: 人BCMA-His抗原 (ACRO, Cat#BCA-H522y) (human, UniProt Q02223 1-54)
# T1 construct: Bought recombinant protein; also called human BCMA-His; 人BCMA蛋白; not shown: His tag
# T1 sequence (looked up): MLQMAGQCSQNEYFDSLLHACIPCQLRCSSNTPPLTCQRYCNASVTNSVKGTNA
# Target: T1, 人BCMA-His抗原 (ACRO, Cat#BCA-H522y)
# Assay: indirect ELISA, plate coated with human BCMA-His at 2 μg/ml, detection with HRP goat anti-human Fcγ
row,Binder,binding result
1,"BCMA-VHH-2B11纳米抗体 (抗人BCMA纳米抗体, 含有Fc tag) (Fc fusion, Expressed in Expi293F cells and purified on Protein A/G. It was tested as VHH with an Fc tag, about 35 kDa on SDS-PAGE; also called anti-human BCMA nanobody; not shown: Fc tag) QVQLVESGGGLVQAGGSLRLSCAASGGTFNNDNVGWFRQAPGKEREFVAVISWRGDGTDYADSVKGRFTISRDYAKKMVYLQMNSLQPKDTAVYYCAVGDGSRWRGAYAYWGQGTRVTVSS",binds
2,"BCMA Benchmark1 (antibody sequence of GSK2857916) (antibody, human IgG1, kappa, V domains shown, also called BCMA-BM1) VH: QVQLVQSGAEVKKPGSSVKVSCKASGGTFSNYWMHWVRQAPGQGLEWMGATYRGHSDTYYNQKFKGRVTITADKSTSTAYMELSSLRSEDTAVYYCARGAIYDGYDVLDNWGQGTLVTVSS VL: DIQMTQSPSSLSASVGDRVTITCSASQDISNYLNWYQQKPGKAPKLLIYYTSNLHSGVPSRFSGSGSGTDFTLTISSLQPEDFATYYCQQYRKLPWTFGQGTKLEIKR",binds
